{
  "source": "patent CN112341541A",
  "about": "(INST FOR VIRAL DISEASE CONTROL AND PREVENTION CHINESE …, dated 2021)",
  "biological_target": "T1, 新型冠状病毒S1蛋白 (纯化) (SARS-CoV-2, UniProt P0DTC2 14-685)",
  "T1 construct": "domain: S1",
  "test": "SPR, BIAcore 8000, purified S1 protein coupled to the chip, 1:1 binding fit",
  "data": [
    {"binder": "人源抗新冠病毒中和性抗体nCoV-163 全抗体IgG (antibody, V domains shown, also called nCoV-163号抗体) VH: EVQLVESGGGLVQPGGSLRLSCEASEIIVNRNYMNWVRQAPGKGLEWVSIIYPGGSTFYADSVKGRFTISRDNSKNTMYLQMNSLRAEDTAVYYCARSYGDFYVDFWGQGTLVTVSS VL: EIVLTQSPVTLSLSPGERATLSCRASQSVSSSYLAWYQQKPGQAPRLLIYGASSRATGIPDRFSGSGSGTDFTLTISRLEPEDFAVYYCQQHGRTFGQGTKVEIKR", "values": [
      {"measurement": "Kd", "value": "< 4.88", "unit": "pM"}
    ]}
  ]
}
